Data: publication PMC8557155 (Annals of Nuclear Medicine, 2021)
Entries after “also recorded” stand apart in the source; their conditions may differ.

Assay: Safety and tolerability (TEAEs, NCI CTCAE v4.0, DLT)
Type: in vivo, human (Japanese patients)
Method: Safety was evaluated based on adverse events, laboratory tests, vital signs, physical examination, arterial oxygen saturation (SpO2), 12-lead electrocardiogram (ECG), body weight, and Eastern Cooperative Oncology Group (ECOG) performance status. Toxicity was evaluated according to the NCI CTCAE criteria version 4.0 14). Blood count and liver and kidney biochemistry examinations were performed just prior to the treatment and 5 days, 2, 4, 6, and 8 weeks after the first administration (Course 1). In addition, the examinations were performed the second, third, fourth administration (Courses 2, 3, 4), and as per routine clinical follow-up thereafter.
Course 2 treatment and subsequent courses were initiated for subjects who completed the dose-limiting toxicity (DLT) observation period (up to Day 56 of Course 1) without experiencing DLT and who met the eligibility criteria. […] The study treatment was considered tolerable when the number of subjects who experienced DLT was zero or one per six subjects. The appropriateness of DLT, as assessed by the investigator or sub-investigator, was confirmed by the clinical trial medical expert. All adverse events and serious adverse events, reported spontaneously or non-spontaneously, were collected during the study.

[1] = TEAE by severity, n = 6, CTCAE v4.0, 4 × 7.4 GBq + amino acid solution + octreotide LAR

Q: Which results are given for `C[C@@H](O)[C@H](NC(=O)[C@@H]1CSSC[C@H](NC(=O)[C@@H](Cc2ccccc2)NC(=O)CN2CCN(CC(=O)O)CCN(CC(=O)O)CCN(CC(=O)O)CC2)C(=O)N[C@@H](Cc2ccc(O)cc2)C(=O)N[C@H](Cc2c[nH]c3ccccc23)C(=O)N[C@@H](CCCCN)C(=O)N[C@@H]([C@@H](C)O)C(=O)N1)C(=O)O` [177Lu-DOTATATE, ^177Lu-DOTA^0-Tyr^3-octreotate, metal not drawn]?
A: Dose-limiting toxicities (DLT) (DLT observation period up to Day 56 of Course 1, n = 6): no dose-limiting toxicities; also recorded: no DLT; ALT increased, Grade 1 [1]: 1 (16.7) n (%); ALT increased, Grade 2 [1]: 0 n (%); ALT increased, Grade 3 [1]: 0 n (%); ALT increased, Grade 4 [1]: 0 n (%); AST increased, Grade 1 [1]: 1 (16.7) n (%); AST increased, Grade 2 [1]: 0 n (%); AST increased, Grade 3 [1]: 0 n (%); AST increased, Grade 4 [1]: 0 n (%); Abdominal distension, Grade 1 [1]: 3 (50.0) n (%); Abdominal distension, Grade 2 [1]: 0 n (%); Abdominal distension, Grade 3 [1]: 0 n (%); Abdominal distension, Grade 4 [1]: 0 n (%); Abdominal pain, Grade 1 [1]: 1 (16.7) n (%); Abdominal pain, Grade 2 [1]: 0 n (%); Abdominal pain, Grade 3 [1]: 0 n (%); Abdominal pain, Grade 4 [1]: 0 n (%); All treatment emergent adverse events (TEAEs), Grade 1 [1]: 0 n (%); All treatment emergent adverse events (TEAEs), Grade 2 [1]: 4 (66.7) n (%); All treatment emergent adverse events (TEAEs), Grade 3 [1]: 2 (33.3) n (%); All treatment emergent adverse events (TEAEs), Grade 4 [1]: 0 n (%); Alopecia, Grade 1 [1]: 3 (50.0) n (%); Alopecia, Grade 2 [1]: 0 n (%); Alopecia, Grade 3 [1]: 0 n (%); Alopecia, Grade 4 [1]: 0 n (%); Blood and lymphatic system disorders (SOC), Grade 1 [1]: 0 n (%); Blood and lymphatic system disorders (SOC), Grade 2 [1]: 1 (16.7) n (%); Blood and lymphatic system disorders (SOC), Grade 3 [1]: 2 (33.3) n (%); Blood and lymphatic system disorders (SOC), Grade 4 [1]: 0 n (%); CPK increased, Grade 1 [1]: 0 n (%); CPK increased, Grade 2 [1]: 1 (16.7) n (%); CPK increased, Grade 3 [1]: 0 n (%); CPK increased, Grade 4 [1]: 0 n (%); Chest discomfort, Grade 1 [1]: 1 (16.7) n (%); Chest discomfort, Grade 2 [1]: 0 n (%); Chest discomfort, Grade 3 [1]: 0 n (%); Chest discomfort, Grade 4 [1]: 0 n (%); Chest pain, Grade 1 [1]: 1 (16.7) n (%); Chest pain, Grade 2 [1]: 0 n (%); Chest pain, Grade 3 [1]: 0 n (%); Chest pain, Grade 4 [1]: 0 n (%); Cholesterol increased, Grade 1 [1]: 0 n (%); Cholesterol increased, Grade 2 [1]: 1 (16.7) n (%); Cholesterol increased, Grade 3 [1]: 0 n (%); Cholesterol increased, Grade 4 [1]: 0 n (%); Constipation, Grade 1 [1]: 2 (33.3) n (%); Constipation, Grade 2 [1]: 0 n (%); Constipation, Grade 3 [1]: 0 n (%); Constipation, Grade 4 [1]: 0 n (%); Creatinine increased, Grade 1 [1]: 1 (16.7) n (%); Creatinine increased, Grade 2 [1]: 0 n (%); Creatinine increased, Grade 3 [1]: 0 n (%); Creatinine increased, Grade 4 [1]: 0 n (%); Decreased appetite, Grade 1 [1]: 3 (50.0) n (%); Decreased appetite, Grade 2 [1]: 1 (16.7) n (%); Decreased appetite, Grade 3 [1]: 0 n (%); Decreased appetite, Grade 4 [1]: 0 n (%); Diarrhea, Grade 1 [1]: 3 (50.0) n (%); Diarrhea, Grade 2 [1]: 2 (33.3) n (%); Diarrhea, Grade 3 [1]: 0 n (%); Diarrhea, Grade 4 [1]: 0 n (%); Dizziness, Grade 1 [1]: 1 (16.7) n (%); Dizziness, Grade 2 [1]: 0 n (%); Dizziness, Grade 3 [1]: 0 n (%); Dizziness, Grade 4 [1]: 0 n (%); Dysgeusia, Grade 1 [1]: 0 n (%); Dysgeusia, Grade 2 [1]: 1 (16.7) n (%); Dysgeusia, Grade 3 [1]: 0 n (%); Dysgeusia, Grade 4 [1]: 0 n (%); Dyshidrotic eczema, Grade 1 [1]: 0 n (%); Dyshidrotic eczema, Grade 2 [1]: 1 (16.7) n (%); Dyshidrotic eczema, Grade 3 [1]: 0 n (%); Dyshidrotic eczema, Grade 4 [1]: 0 n (%); Gastrointestinal disorders (SOC), Grade 1 [1]: 4 (66.7) n (%); Gastrointestinal disorders (SOC), Grade 2 [1]: 2 (33.3) n (%); Gastrointestinal disorders (SOC), Grade 3 [1]: 0 n (%); Gastrointestinal disorders (SOC), Grade 4 [1]: 0 n (%); General disorders and administration site conditions (SOC), Grade 1 [1]: 5 (83.3) n (%); General disorders and administration site conditions (SOC), Grade 2 [1]: 0 n (%); General disorders and administration site conditions (SOC), Grade 3 [1]: 0 n (%); General disorders and administration site conditions (SOC), Grade 4 [1]: 0 n (%); Gingivitis, Grade 1 [1]: 1 (16.7) n (%); Gingivitis, Grade 2 [1]: 0 n (%); Gingivitis, Grade 3 [1]: 0 n (%); Gingivitis, Grade 4 [1]: 0 n (%); Headache, Grade 1 [1]: 1 (16.7) n (%); Headache, Grade 2 [1]: 0 n (%); Headache, Grade 3 [1]: 0 n (%); Headache, Grade 4 [1]: 0 n (%); Hyperuricemia, Grade 1 [1]: 1 (16.7) n (%); Hyperuricemia, Grade 2 [1]: 0 n (%); Hyperuricemia, Grade 3 [1]: 0 n (%); Hyperuricemia, Grade 4 [1]: 0 n (%); Hypocalcemia, Grade 1 [1]: 0 n (%); Hypocalcemia, Grade 2 [1]: 1 (16.7) n (%); Hypocalcemia, Grade 3 [1]: 0 n (%); Hypocalcemia, Grade 4 [1]: 0 n (%); Immune system disorders (SOC), Grade 1 [1]: 1 (16.7) n (%); Immune system disorders (SOC), Grade 2 [1]: 0 n (%); Immune system disorders (SOC), Grade 3 [1]: 0 n (%); Immune system disorders (SOC), Grade 4 [1]: 0 n (%); Infections and infestations (SOC), Grade 1 [1]: 2 (33.3) n (%); Infections and infestations (SOC), Grade 2 [1]: 1 (16.7) n (%); Infections and infestations (SOC), Grade 3 [1]: 0 n (%); Infections and infestations (SOC), Grade 4 [1]: 0 n (%); Investigations (SOC), Grade 1 [1]: 1 (16.7) n (%); Investigations (SOC), Grade 2 [1]: 4 (66.7) n (%); Investigations (SOC), Grade 3 [1]: 0 n (%); Investigations (SOC), Grade 4 [1]: 0 n (%); Leukopenia, Grade 1 [1]: 0 n (%); Leukopenia, Grade 2 [1]: 2 (33.3) n (%); Leukopenia, Grade 3 [1]: 0 n (%); Leukopenia, Grade 4 [1]: 0 n (%); Lymphopenia, Grade 1 [1]: 0 n (%); Lymphopenia, Grade 2 [1]: 1 (16.7) n (%); Lymphopenia, Grade 3 [1]: 2 (33.3) n (%); Lymphopenia, Grade 4 [1]: 0 n (%); Malaise, Grade 1 [1]: 4 (66.7) n (%); Malaise, Grade 2 [1]: 0 n (%); Malaise, Grade 3 [1]: 0 n (%); Malaise, Grade 4 [1]: 0 n (%); Metabolism and nutrition disorders (SOC), Grade 1 [1]: 3 (50.0) n (%); Metabolism and nutrition disorders (SOC), Grade 2 [1]: 2 (33.3) n (%); Metabolism and nutrition disorders (SOC), Grade 3 [1]: 0 n (%); Metabolism and nutrition disorders (SOC), Grade 4 [1]: 0 n (%); Musculoskeletal and connective tissue disorders (SOC), Grade 1 [1]: 1 (16.7) n (%); Musculoskeletal and connective tissue disorders (SOC), Grade 2 [1]: 0 n (%); Musculoskeletal and connective tissue disorders (SOC), Grade 3 [1]: 0 n (%); Musculoskeletal and connective tissue disorders (SOC), Grade 4 [1]: 0 n (%); Musculoskeletal pain, Grade 1 [1]: 1 (16.7) n (%); Musculoskeletal pain, Grade 2 [1]: 0 n (%); Musculoskeletal pain, Grade 3 [1]: 0 n (%); Musculoskeletal pain, Grade 4 [1]: 0 n (%); Nasopharyngitis, Grade 1 [1]: 2 (33.3) n (%); Nasopharyngitis, Grade 2 [1]: 0 n (%); Nasopharyngitis, Grade 3 [1]: 0 n (%); Nasopharyngitis, Grade 4 [1]: 0 n (%); Nausea, Grade 1 [1]: 3 (50.0) n (%); Nausea, Grade 2 [1]: 0 n (%); Nausea, Grade 3 [1]: 0 n (%); Nausea, Grade 4 [1]: 0 n (%); Nervous system disorders (SOC), Grade 1 [1]: 3 (50.0) n (%); Nervous system disorders (SOC), Grade 2 [1]: 1 (16.7) n (%); Nervous system disorders (SOC), Grade 3 [1]: 0 n (%); Nervous system disorders (SOC), Grade 4 [1]: 0 n (%); Decreased appetite, frequency (all grades) (TEAE, n = 6): 66.7%; Diarrhea, frequency (all grades) (TEAE, n = 6): 83.3%; Leukopenia, frequency (all grades) (TEAE, n = 6): 33.3%; Lymphopenia, frequency (all grades) (TEAE, n = 6): 50%; Malaise, frequency (all grades) (TEAE, n = 6): 66.7%; Nausea, frequency (all grades) (TEAE, n = 6): 50%; Thrombocytopenia, frequency (all grades) (TEAE, n = 6): 33.3%; Lymphocyte, erythrocyte, and leukocyte counts (after each treatment, n = 6): gradually decreased; Abdominal distension, frequency (all grades) (in vivo): 50%; Alopecia, frequency (all grades) (in vivo): 50%; Blood creatinine level increased, frequency (in vivo): 16.7%; Severe infections (in vivo): no severe infections; Severe lymphopenia during the follow-up period, frequency (in vivo): 16.7%; Secondary hematological malignant diseases (n = 6): no secondary hematological malignant diseases; Severe (grade ≥ 3) adverse events associated with non-hematological toxicities (n = 6): no severe (grade ≥ 3) adverse events
